Laboratory results taken from paper PMC3140604.

Tests used:
[1] = substrate: O=C(O)C(Cl)Cl; assay: cells, lysate or membranes; format: cell-based, Homo sapiens; conditions: Na+ competes with nicotinate for uptake via SLC5A8
[2] = substrate: CC(=O)O; assay: cells, lysate or membranes; format: cell-based, Homo sapiens; conditions: Na+ competes with nicotinate for uptake via SLC5A8

B1: SLC5A8 (Homo sapiens) (protein)
chain: MDTPRGIGTFVVWDYVVFAGMLVISAAIGIYYAFAGGGQQTSKDFLMGGRRMTAVPVALSLTASFMSAVTVLGTPSEVYRFGAIFSIFAFTYFFVVVISAEVFLPVFYKLGITSTYEYLELRFNKCVRLCGTVLFIVQTILYTGIVIYAPALALNQVTGFDLWGAVVATGVVCTFYCTLGGLKAVIWTDVFQVGIMVAGFASVIIQAVVMQGGISTILNDAYDGGRLNFWNFNPNPLQRHTFWTIIIGGTFTWTSIYGVNQSQVQRYISCKSRFQAKLSLYINLVGLWAILTCSVFCGLALYSRYHDCDPWTAKKVSAPDQLMPYLVLDILQDYPGLPGLFVACAYSGTLSTVSSSINALAAVTVEDLIKPYFRSLSERSLSWISQGMSVVYGALCIGMAALASLMGALLQAALSVFGMVGGPLMGLFALGILVPFANSIGALVGLMAGFAISLWVGIGAQIYPPLPERTLPLHLDIQGCNSTYNETNLMTTTEMPFTTSVFQIYNVQRTPLMDNWYSLSYLYFSTVGTLVTLLVGILVSLSTGGRKQNLDPRYILTKEDFLSNFDIFKKKKHVLSYKSHPVEDGGTDNPAFNHIELNSDQSGKSNGTRL
Km [1]: 36 ± 7 µM | Km [2]: 1600 ± 100 µM
